In test [1] the target is M2 protein of influenza A/Japan/305/57 (H2N2), on inactivated whole virions (Influenza A virus A/Japan/305/1957 (H2N2)) (UniProt Q6XU12). The experiment in a line: ELISA, positive control antibody on inactivated whole virions.
For test [2], the target named is M2 protein of influenza A/Puerto Rico/8/34 (H1N1), on inactivated virus (Influenza A virus A/Puerto Rico/8/34 (H1N1)) (UniProt P06821). The experiment in a line: surface plasmon resonance, Fab fragment on influenza virus. A general note: In SPR one partner is held on a chip, and binding of the other changes the refractive index at the surface.
The target of test [3] is recombinant soluble homotrimeric HA of A/Common magpie/Hong Kong/5052/07 - H5N1 (Influenza A virus A/common magpie/Hong Kong/5052/2007 (H5N1)). The experiment in a line: micro-array; captured IgG, V5-tagged trimeric HA.

TCN-032 (8I10) (antibody), sequence (VH): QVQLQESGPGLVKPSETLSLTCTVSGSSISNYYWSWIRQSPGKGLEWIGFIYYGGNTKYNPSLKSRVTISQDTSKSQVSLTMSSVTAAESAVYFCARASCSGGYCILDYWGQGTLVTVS
TCN-032 (8I10) (antibody), sequence (VL): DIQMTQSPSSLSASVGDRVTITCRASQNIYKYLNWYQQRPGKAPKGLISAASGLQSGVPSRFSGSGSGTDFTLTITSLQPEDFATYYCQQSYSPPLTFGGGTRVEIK

TCN-032 (8I10) (antibody) came in with an OD450 in test [1] of 3.61 OD450.
The Kd is a measure of binding affinity in units of concentration. High values mean a looser complex, low ones a tighter complex. Usually koff stands for the rate constant with which the complex falls apart. Higher therefore signals fast dissociation. As usually defined, the kon is the rate constant with which the complex forms. Take ch14C2 Fab fragment: in test [2], the equilibrium dissociation constant (Kd) was 4 µM, the off-rate (koff) was 0.0018 s⁻¹ and the kon is 500 M⁻¹ s⁻¹.
For the substance TCN-202 (2N9) (antibody), the Trimeric HA Binding: RLU in test [3] is 1370 RLU.
